Changes are numbered by the printed parent chain.
B1: monoclonal antibody 39.29 NWPP (antibody, V domains shown)
VH: EVQLVESGGGVVQPGKSLRLSCAASGLTFSSYAVHWVRQAPGKGLEWVTLISYDGANQYYADSVKGRFTISRDNSKNTVYLQMNSLRPEDTAVYYCAVPGPVFGIFPPWSYFDNWGQGILVTVSS
VL: EIVLTQSPATLSVSPGERATLSCRASQVISHNLAWYQQKPGQAPRLLIYGASTRASGIPARFSGSGSGTDYTLTITSLQSEDFAVYYCQHYSNWPPRLTFGGGTKVEIK
B2: monoclonal antibody 39.29 NCv1 (antibody, V domains shown)
VH: B1 VH with E1Q, L18P, L27P
VL: B1 VL with S80P

Experiments:
Assay in all cases: cell-based or functional assay
[1] = molecular target: hemagglutinin of influenza A virus H3N2 A/Aichi/2/1968 (influenza A virus A/Aichi/2/1968 (H3N2)) (UniProt P03437)
[2] = molecular target: hemagglutinin of influenza A virus H3N2 A/Hong Kong/1/1968 (influenza A virus A/Hong Kong/1/1968 (H3N2)) (UniProt Q91MA7)
[3] = molecular target: hemagglutinin of influenza A virus H3N2 A/Port Chalmers/1/1973 (influenza A virus A/Port Chalmers/1/1973 (H3N2))

Row | Binder | in vitro IC50 (neutralization of virus infection of MDCK cells) [1] | in vitro IC50 (neutralization of virus infection of MDCK cells) [2] | in vitro IC50 (neutralization of virus infection of MDCK cells) [3]
1 | B1 | 35 nM | 45.1 nM | 2.2 nM
2 | B2 | 35 nM | – | 2.9 nM
